Test [1] deals with T1, N2 neuraminidase from A/Leningrad/134/17/57 (Influenza A virus A/Leningrad/134/17/57, UniProt Q67214 1-469). The test is described as follows: flow cytometry, NA transiently expressed on Expi-CHO cells.
The target in test [2] is IBV neuraminidase from B/Lee/10/1940 (Ancestral) (Influenza B virus B/Lee/10/1940, UniProt P03474 1-466). The description is as above.
Test [3] addresses T1, N2 neuraminidase from …. Nature of the test: flow cytometry, NA on cells. (A flow cytometer gives signals particle by particle.)

T1 sequence (Q67214 whole entry): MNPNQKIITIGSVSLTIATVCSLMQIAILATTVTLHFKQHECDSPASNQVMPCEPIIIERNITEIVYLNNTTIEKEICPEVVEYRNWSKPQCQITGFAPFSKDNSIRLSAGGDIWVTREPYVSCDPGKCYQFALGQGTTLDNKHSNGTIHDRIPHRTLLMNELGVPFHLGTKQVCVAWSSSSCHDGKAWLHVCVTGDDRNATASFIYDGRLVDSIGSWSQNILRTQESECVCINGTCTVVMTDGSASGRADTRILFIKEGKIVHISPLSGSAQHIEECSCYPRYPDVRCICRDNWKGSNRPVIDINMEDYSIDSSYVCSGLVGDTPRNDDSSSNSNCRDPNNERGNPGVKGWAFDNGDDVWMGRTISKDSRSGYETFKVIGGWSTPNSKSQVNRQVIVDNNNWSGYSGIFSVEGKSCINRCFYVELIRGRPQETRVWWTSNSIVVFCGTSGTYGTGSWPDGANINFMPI
Chain of IBV neuraminidase from B/Lee/10/1940 (Ancestral) (P03474 whole entry): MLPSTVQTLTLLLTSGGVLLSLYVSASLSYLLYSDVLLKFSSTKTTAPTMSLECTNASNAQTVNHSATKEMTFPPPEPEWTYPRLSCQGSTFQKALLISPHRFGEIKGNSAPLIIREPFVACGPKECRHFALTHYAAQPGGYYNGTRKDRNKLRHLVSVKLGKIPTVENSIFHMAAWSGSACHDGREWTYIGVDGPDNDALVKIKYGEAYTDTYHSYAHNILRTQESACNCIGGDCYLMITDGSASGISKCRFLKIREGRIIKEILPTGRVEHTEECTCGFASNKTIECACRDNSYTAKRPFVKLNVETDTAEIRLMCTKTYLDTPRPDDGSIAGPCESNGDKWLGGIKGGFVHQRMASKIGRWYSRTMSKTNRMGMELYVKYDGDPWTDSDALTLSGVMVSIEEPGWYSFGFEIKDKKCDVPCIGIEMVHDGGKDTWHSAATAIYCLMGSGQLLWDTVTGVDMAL

B1: FNI9 (antibody, V domains shown)
VH: QVHLVQSGAEVKEPGSSVTVSCKASGGSFNNQAISWVRQAPGQGLEWMGGIFPISGTPTSAQRFQGRVTFTADESTTTVYMDLSSLRSDDTAVYYCARAGSDYFNRDLGWENYYFASWGQGTLVTVSS
VL: EIVMTQSPATLSLSSGERATLSCRASRSVSSNLAWYQQKPGQAPRLLIYDASTRATGFSARFAGSGSGTEFTLTISSLQSEDSAIYYCQQYNNWPPWTFGQGTKVEIK
In the case of B1, the “lowest concentration at which binding was observed (EC50 scale class)” value in test [1] and in test [2] was 0.4 µg/mL each time.

B2: v4.7 (antibody, V domains shown)
VH: QVHLVQSGAEVKEPGSSVTVSCKASGGSFSNQAISWVRQAPGQGLEWMGGIFPISGTPTSAQRFQGRVTFTADESTTTVYMDLSSLRSDDTAVYYCARAGSDYFNRDLGWENYYFASWGQGTLVTVSS
VL: EIVMTQSPATLSLSSGERATLSCRASRSVSSNLAWYQQKPGQAPRLLIYDASTRATGFSARFAGSGSGTEFTLTISSLQSEDSAIYYCQQYNIWPPWTFGQGTKVEIK
For the molecule B2, the binding result in test [3] was “binds”.

B3: v7.7 (antibody, V domains shown)
VH: QVHLVQSGAEVKEPGSSVTVSCKASGGSFNNQAISWVRQAPGQGLEWMGGIFPISGTPTSAQRFQGRVTFTADESTTTVYMDLSSLRSDDTAVYYCARAGSDYFNRDLGWEQYYFASWGQGTLVTVSS
VL: EIVMTQSPATLSLSSGERATLSCRASRSVSSNLAWYQQKPGQAPRLLIYDASTRATGFSARFAGSGSGTEFTLTISSLQSEDSAIYYCQQYNIWPPWTFGQGTKVEIK
Turning to B3, the binding result in test [3] was “binds”.

B4: v11.1 (antibody, V domains shown)
VH: QVHLVQSGAEVKEPGSSVTVSCKASGGSFNNQAISWVRQAPGQGLEWMGGIFPISGTATYAQRFQGRVTITADESTTTVYMDLSSLRSDDTAVYYCARAGSDYFNRDLGWENYYFASWGQGTLVTVSS
VL: EIVMTQSPATLSLSSGERATLSCRASRSVSSNLAWYQQKPGQAPRLLIYDASTRATGFSARFAGSGSGTEFTLTISSLQSEDSAIYYCQQYNNWPPWTFGQGTKVEIK
On to B4, for which the binding result in test [3] is on record as “binds”.

B5: v6.7 (antibody, V domains shown)
VH: QVHLVQSGAEVKEPGSSVTVSCKASGGSFNNQAISWVRQAPGQGLEWMGGIFPISGTPTSAQRFQGRVTFTADESTTTVYMDLSSLRSDDTAVYYCARAGSEYFNRDLGWENYYFASWGQGTLVTVSS
VL: EIVMTQSPATLSLSSGERATLSCRASRSVSSNLAWYQQKPGQAPRLLIYDASTRATGFSARFAGSGSGTEFTLTISSLQSEDSAIYYCQQYNIWPPWTFGQGTKVEIK
Consider B5, for which the binding result in test [3] is listed as “binds”.

B6: v5.7 (antibody, V domains shown)
VH: QVHLVQSGAEVKEPGSSVTVSCKASGGSFNKQAISWVRQAPGQGLEWMGGIFPISGTPTSAQRFQGRVTFTADESTTTVYMDLSSLRSDDTAVYYCARAGSDYFNRDLGWENYYFASWGQGTLVTVSS
VL: EIVMTQSPATLSLSSGERATLSCRASRSVSSNLAWYQQKPGQAPRLLIYDASTRATGFSARFAGSGSGTEFTLTISSLQSEDSAIYYCQQYNIWPPWTFGQGTKVEIK
On to B6, for which the binding result in test [3] is “binds”.

B7: v4.1 (antibody, V domains shown)
VH: QVHLVQSGAEVKEPGSSVTVSCKASGGSFSNQAISWVRQAPGQGLEWMGGIFPISGTPTSAQRFQGRVTFTADESTTTVYMDLSSLRSDDTAVYYCARAGSDYFNRDLGWENYYFASWGQGTLVTVSS
VL: EIVMTQSPATLSLSSGERATLSCRASRSVSSNLAWYQQKPGQAPRLLIYDASTRATGFSARFAGSGSGTEFTLTISSLQSEDSAIYYCQQYNNWPPWTFGQGTKVEIK
With B7, the binding result in test [3] is on record as “binds”.

B8: v9.7 (antibody, V domains shown)
VH: QVHLVQSGAEVKEPGSSVTVSCKASGGSFNNQAISWVRQAPGQGLEWMGGIFPISGTATSAQRFQGRVTITADESTTTVYMDLSSLRSDDTAVYYCARAGSDYFNRDLGWENYYFASWGQGTLVTVSS
VL: EIVMTQSPATLSLSSGERATLSCRASRSVSSNLAWYQQKPGQAPRLLIYDASTRATGFSARFAGSGSGTEFTLTISSLQSEDSAIYYCQQYNIWPPWTFGQGTKVEIK
Consider B8, for which, in test [3], the binding result is “binds”.

B9: v12.7 (antibody, V domains shown)
VH: QVHLVQSGAEVKEPGSSVTVSCKASGGSFNNQAISWVRQAPGQGLEWMGGIFPISGTANYAQRFQGRVTITADESTTTVYMDLSSLRSDDTAVYYCARAGSDYFNRDLGWENYYFASWGQGTLVTVSS
VL: EIVMTQSPATLSLSSGERATLSCRASRSVSSNLAWYQQKPGQAPRLLIYDASTRATGFSARFAGSGSGTEFTLTISSLQSEDSAIYYCQQYNIWPPWTFGQGTKVEIK
Consider B9, for which the binding result in test [3] is “binds”.

B10: v12.1 (antibody, V domains shown)
VH: QVHLVQSGAEVKEPGSSVTVSCKASGGSFNNQAISWVRQAPGQGLEWMGGIFPISGTANYAQRFQGRVTITADESTTTVYMDLSSLRSDDTAVYYCARAGSDYFNRDLGWENYYFASWGQGTLVTVSS
VL: EIVMTQSPATLSLSSGERATLSCRASRSVSSNLAWYQQKPGQAPRLLIYDASTRATGFSARFAGSGSGTEFTLTISSLQSEDSAIYYCQQYNNWPPWTFGQGTKVEIK
B10: in test [3], the binding result was “binds”.

B11: v8.7 (antibody, V domains shown)
VH: QVHLVQSGAEVKEPGSSVTVSCKASGGTFNNQAISWVRQAPGQGLEWMGGIFPISGTPTSAQRFQGRVTFTADESTTTVYMDLSSLRSDDTAVYYCARAGSDYFNRDLGWENYYFASWGQGTLVTVSS
VL: EIVMTQSPATLSLSSGERATLSCRASRSVSSNLAWYQQKPGQAPRLLIYDASTRATGFSARFAGSGSGTEFTLTISSLQSEDSAIYYCQQYNIWPPWTFGQGTKVEIK
Take B11: in test [3], the binding result is given as “binds”.

B12: v11.7 (antibody, V domains shown)
VH: QVHLVQSGAEVKEPGSSVTVSCKASGGSFNNQAISWVRQAPGQGLEWMGGIFPISGTATYAQRFQGRVTITADESTTTVYMDLSSLRSDDTAVYYCARAGSDYFNRDLGWENYYFASWGQGTLVTVSS
VL: EIVMTQSPATLSLSSGERATLSCRASRSVSSNLAWYQQKPGQAPRLLIYDASTRATGFSARFAGSGSGTEFTLTISSLQSEDSAIYYCQQYNIWPPWTFGQGTKVEIK
Consider B12, for which the binding result in test [3] is reported as “binds”.

B13: v7.1 (antibody, V domains shown)
VH: QVHLVQSGAEVKEPGSSVTVSCKASGGSFNNQAISWVRQAPGQGLEWMGGIFPISGTPTSAQRFQGRVTFTADESTTTVYMDLSSLRSDDTAVYYCARAGSDYFNRDLGWEQYYFASWGQGTLVTVSS
VL: EIVMTQSPATLSLSSGERATLSCRASRSVSSNLAWYQQKPGQAPRLLIYDASTRATGFSARFAGSGSGTEFTLTISSLQSEDSAIYYCQQYNNWPPWTFGQGTKVEIK
For the molecule B13, the binding result in test [3] was “binds”.

B14: v6.1 (antibody, V domains shown)
VH: QVHLVQSGAEVKEPGSSVTVSCKASGGSFNNQAISWVRQAPGQGLEWMGGIFPISGTPTSAQRFQGRVTFTADESTTTVYMDLSSLRSDDTAVYYCARAGSEYFNRDLGWENYYFASWGQGTLVTVSS
VL: EIVMTQSPATLSLSSGERATLSCRASRSVSSNLAWYQQKPGQAPRLLIYDASTRATGFSARFAGSGSGTEFTLTISSLQSEDSAIYYCQQYNNWPPWTFGQGTKVEIK
Take B14: the binding result in test [3] is reported as “binds”.

B15: FNI9-v8.1 (antibody, V domains shown)
VH: QVHLVQSGAEVKEPGSSVTVSCKASGGTFNNQAISWVRQAPGQGLEWMGGIFPISGTPTSAQRFQGRVTFTADESTTTVYMDLSSLRSDDTAVYYCARAGSDYFNRDLGWENYYFASWGQGTLVTVSS
VL: EIVMTQSPATLSLSSGERATLSCRASRSVSSNLAWYQQKPGQAPRLLIYDASTRATGFSARFAGSGSGTEFTLTISSLQSEDSAIYYCQQYNNWPPWTFGQGTKVEIK
For B15, in test [3], the binding result is reported as “binds”.

B16: v5.1 (antibody, V domains shown)
VH: QVHLVQSGAEVKEPGSSVTVSCKASGGSFNKQAISWVRQAPGQGLEWMGGIFPISGTPTSAQRFQGRVTFTADESTTTVYMDLSSLRSDDTAVYYCARAGSDYFNRDLGWENYYFASWGQGTLVTVSS
VL: EIVMTQSPATLSLSSGERATLSCRASRSVSSNLAWYQQKPGQAPRLLIYDASTRATGFSARFAGSGSGTEFTLTISSLQSEDSAIYYCQQYNNWPPWTFGQGTKVEIK
Take B16: in test [3], the binding result is reported as “binds”.

B17: v9.1 (antibody, V domains shown)
VH: QVHLVQSGAEVKEPGSSVTVSCKASGGSFNNQAISWVRQAPGQGLEWMGGIFPISGTATSAQRFQGRVTITADESTTTVYMDLSSLRSDDTAVYYCARAGSDYFNRDLGWENYYFASWGQGTLVTVSS
VL: EIVMTQSPATLSLSSGERATLSCRASRSVSSNLAWYQQKPGQAPRLLIYDASTRATGFSARFAGSGSGTEFTLTISSLQSEDSAIYYCQQYNNWPPWTFGQGTKVEIK
As for B17, the binding result in test [3] is on record as “binds”.
